Experiment [1] has as its target ReoM-His (L. monocytogenes) (UniProt P60357). Nature of the experiment: pull-down + cross-linking; L. monocytogenes ΔclpC strains making ReoM-His were cross-linked in vivo with formaldehyde; ReoM-His purified on MagneHis magnetic beads, decrosslinked by heat; MurA in the eluates detected by Western blot and quantified by densitometry. For orientation: In western blotting, separated proteins are transferred to a membrane and probed.

Experiment [2] has as its target MurA-Strep (L. monocytogenes) (UniProt Q8Y4C4). The experiment can be described thus: SPR.
Experiment [3] addresses MurA S262L-Strep (L. monocytogenes) (UniProt Q8Y4C4). The experiment can be described thus: SPR. (Surface plasmon resonance follows binding to a sensor surface in real time, without labels.)
In experiment [4] the target is MurA N197D-Strep (L. monocytogenes) (UniProt Q8Y4C4). Nature of the experiment: SPR.

The values that follow come from PMC8959180.

UniProt P60357, sequence (P60357 whole entry): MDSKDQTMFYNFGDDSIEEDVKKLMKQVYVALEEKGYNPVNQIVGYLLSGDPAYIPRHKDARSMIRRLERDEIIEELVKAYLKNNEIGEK

Turning to “MurA S262L (chromosomal allele, strain LMPR13) (from UniProt Q8Y4C4 1-430) (enzyme)”, in experiment [1], the percent of wt MurA level copurified is 19%.

On to “recombinant ReoM (from UniProt P60357 1-90) (natural protein)”, for which the Kd (as a rule, a measure of binding affinity in units of concentration) in experiment [2] was 0.9 µM; in experiment [3] it was 0.8 µM; in experiment [4], 0.7 µM. For the same substance, the koff – broadly, the rate constant with which the complex falls apart – in experiment [2] is 0.0004 s⁻¹. The kon (in general, the rate constant with which the complex forms) in experiment [2] amounted to 500 M⁻¹ s⁻¹.

As to “MurA N197D (chromosomal allele, strain LMPR14) (from UniProt Q8Y4C4 1-430) (enzyme)”, the percent of wt MurA level copurified in experiment [1] stood at 13%.
